Results published in the RNAGym collection of RNA variant scans (doi:10.1073/pnas.2313332121).
Variants at the floor of the assay were thinned out.

B1: TPR 5TU (parent)
chain: GGAUCUUCUCGAUCUAACAAAAAAGACAAAUCUGCCACAAAGCUUGAGAGCAUCUUCGGAUGCAGAGGCGGCAGCCUUCGGUGGCGCGAUAGCGCCAACGUUCUCAACUAUGACACGCAAAACGCGUGCUCCGUUGAAUGGAGUUUAUCAUG

Variants of: B1
Test: polymerase ribozyme fitness, log enrichment relative to wild type (log ratio); higher = more active; in vitro selection for triplet polymerase activity
How it was run: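 The heterodimeric triplet polymerase ribozyme's subunits were each mutagenized into PCR-built libraries and transcribed. Every library was selected once, in triplicate, by annealing with a biotinylated primer, the partner subunit and triplets, incubating frozen at −7 °C, gel-excising extended constructs, capturing on streptavidin beads and running RT-PCR. Input and output libraries were Illumina-sequenced, with genotypes kept only at ≥10 input reads and ≥1 read per output. Fitness, from inverse-variance-weighted replicate averages, is the base-2 logarithm of genotype enrichment over wild-type enrichment.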

Polymerase ribozyme fitness (log ratio), -3.21:
G25C C54A C105U

Polymerase ribozyme fitness (log ratio), -1.81:
A24U A52G A106G G143A

Polymerase ribozyme fitness (log ratio), -3.37:
A24U G46C A73G C87U G92C

Polymerase ribozyme fitness (log ratio), -2.96:
A24G C85A

Polymerase ribozyme fitness (log ratio), -1.72:
A24U U61A

Polymerase ribozyme fitness (log ratio), -2.24:
A24U G67C C76G G83U

Polymerase ribozyme fitness (log ratio), -3.94:
A24U A98U C99U U127G

Polymerase ribozyme fitness (log ratio), 0.0587:
A24U C96U

Polymerase ribozyme fitness (log ratio), 0.771:
A24U A52G

Polymerase ribozyme fitness (log ratio), -3.38:
A24U C54A G86A

Polymerase ribozyme fitness (log ratio), -3.66:
A24U A73U A119G A121U C132A
A24U A28G C36U G62A U78G G83A A91G G128C

Polymerase ribozyme fitness (log ratio), -3.54:
A24U A52U C118G A142U

Polymerase ribozyme fitness (log ratio), -1.86:
A24U G62U C96A G117A

Polymerase ribozyme fitness (log ratio), -3.62:
A24U G34U G42A U55G A91C G94A
A24C U31A A52G

Polymerase ribozyme fitness (log ratio), -1.34:
A24U U55C C85A

Polymerase ribozyme fitness (log ratio), -4.14:
A24U G80C

Polymerase ribozyme fitness (log ratio), -3.36:
G25C A60G G86C C105U

Polymerase ribozyme fitness (log ratio), -3.33:
G25C G50U C96U A97U

Polymerase ribozyme fitness (log ratio), -3.59:
G25C C93U

Polymerase ribozyme fitness (log ratio), -2.21:
A24U C93U A142C
A24U U135C

Polymerase ribozyme fitness (log ratio), -2.09:
G25A U55A

Polymerase ribozyme fitness (log ratio), -0.301:
A24U C96G

Polymerase ribozyme fitness (log ratio), -2.54:
A24U A41G C69A C99G

Polymerase ribozyme fitness (log ratio), -3.32:
A23U G84A

Polymerase ribozyme fitness (log ratio), -4.13:
A23U U148C

Polymerase ribozyme fitness (log ratio), -2.85:
G25C G83U
A24G C116G

Polymerase ribozyme fitness (log ratio), -3.78:
A24G U55G
A24G U145A
A24U G68A

Polymerase ribozyme fitness (log ratio), -1.75:
G25A U31A U56A G58A A60C C95U U135A

Polymerase ribozyme fitness (log ratio), -3.19:
G25A U61A

Polymerase ribozyme fitness (log ratio), -3.93:
A24C C27G G94A A106G C108U

Polymerase ribozyme fitness (log ratio), -0.195:
A24U G80U

Polymerase ribozyme fitness (log ratio), 0.748:
A24U C96A U145A

Polymerase ribozyme fitness (log ratio), -4.07:
G25A U82C C105G A121U

Polymerase ribozyme fitness (log ratio), -4.12:
A24U C32G U135G G143A
G25C G46A U144C

Polymerase ribozyme fitness (log ratio), -3.74:
A24U C51U G59C G83A G84U C131U

Polymerase ribozyme fitness (log ratio), -3.99:
A23U G94A

Polymerase ribozyme fitness (log ratio), 0.694:
A24U U45C U101G A106G

Polymerase ribozyme fitness (log ratio), -4.2:
G25A G34U C35G C85G

Polymerase ribozyme fitness (log ratio), -1.55:
A24U U82G G83C

Polymerase ribozyme fitness (log ratio), -3.49:
A24G C93U

Polymerase ribozyme fitness (log ratio), -1.93:
A24U G58C U104A G141U

Polymerase ribozyme fitness (log ratio), -3.56:
A24G C99U

Polymerase ribozyme fitness (log ratio), -0.914:
A24U C85U

Polymerase ribozyme fitness (log ratio), -3.42:
G25C A52G G83C

Polymerase ribozyme fitness (log ratio), 0.167:
A24U U53A C57A C95A C123G

Polymerase ribozyme fitness (log ratio), -2.68:
G25C A119C

Polymerase ribozyme fitness (log ratio), -4.19:
A24U G74C

Polymerase ribozyme fitness (log ratio), ≤ -4.2:
G25C A52C G58C G62U U78G U82C C93A C125G
G25A G34C U44A G84A G88A
A24G A26U U56A C87G C123A C132G G133U
A24U C35A C85U C132A
A23U U45C A66G C85U
A24C U61A C63G G81A G94A
A24C G65A G84C A97G G100U C108G G141C
A24G A29G G46U
A24G G25C A49U G84A U102G
A23U U55A G128U
A24U G58A A66U C87A U90G U146C
A24C G50C C96G A110U
A24C C27G U33G C38U A47U U82A G128U
A24C A29C A37U G59A U61G C87A C103G G117U
A24C A37C C38U G59A C95A A107C C116U
A24G A30G A47U A52C A60C C76A G100A C114A C118G G140A
A24U C38G C57G G83C A91U C105A C149A
A24G C123U C132U U134A
A24G A52C C85U C96U C105U A120U G136A
A24U C35A A41C G88C
A24U C27U C51A G92A A113U
A24G C85G
A24C A30U A52G G58A G68A U82G C93U A98U G100C C125A G126U
A24U U151A
A24C A49C G84A A97C U130G A137U
A24U A26G A64C G84U A97U A122C
A24G A73G G86A G141U U145A A150U
A24U C96U G117A G133A U145A
A24U C35A C87A A91C A150G
A24C C85A G143C U146A
A24G C35A G58A C93G C99A
G25C A64C C96U
A23U U55A C57U G68U A73G G80C G94U U104C
A24G A49G C105U G117U
A24U A52G C69G G70C G88A
A24G U31A C38G U53A C57A U77C G83A A137C
A24G A26C A29C C79A C93U A115G G117A U144C A150C
A24C A29C U55G G94C
A24C G86C G143A U148C
A23U U56G G58C G74C G88U
A24C C93U C114U A119G
A24U U31A A37U G143C
A24G U53A C96G A122G A142C
A24U G25C A28G A30G A49U G83A C87A
G25A C27G U44A G86C A97U A110C
A24C A29G C51U C95G C96U C114A U146C
A24C A98U
G25C A52C G58C G59C A138U
A23U G86U A89G C105G C129U
A24G A30U G42U C72U A91G A120C
A24C C54A A60G A73U U77G
A24C C72U C85G C131G G133U
G25C C57A C63A G92C A113C U134A
A24U G58A C79G A91U C118A G141C
A24C A30U C43A C57U C87G
G25C C85U A89U U135G
A23U G74U U82G
G25C A49C C51U U53G C54A C116U G141A G152U
G25C U33A C69G G71A
A24U G34U A47C C95G C108A A110G A138C A147C G152A
A24C G88U C95G C96U
A24U A39C G92U U144G U148G
G25C A41C U55A U61A C116U U144A
A24C U56A G68A G141A
A24G C54A A106G
A24C G46C A73G C93A A110U A147U
A24G G25U U31C U55A C87G U102G
A24C G46A G94U C95A A115C
A23U U44A U45A A66U C95U A120G
A24U A29C A73G G86U A89C G140U A150G
A23U U90C C93U U102G A119U G124A G133U U134C
A24U U53A G80A C85U A142C
G25C G88U G124A G128U U135C
A24U A26U C54U G84U U127A
A24U A73U C87A A89U
A24C A30U A138U U144G
A24U U31C G68U G70A G94U C116G U139G
A24G C85A U146C
A24U G68C G81C G94A A98C U104C
A24U A28C U33A G59A G140U U144G U146G
A24U A47C G71C A97U A98G C129G
G25C G48C A66G C93A
A24U A29G A52G A91U G126U U144G
A24U A26U U55C A91G
G25C G68C C93A C99G C114U
A24C G62C G86U U102C
A24C U55A A73U G84U U102A A110U A119C
G25A C32A A40C C123A G124A A138C
A24C A49C A52C A64U C69A U82G C108U U130A U139G
A24G A37U A115G U130C U135A A150U
A24C C27G A29U C57U G86C C103A
G25C C76U C79G C93A C118U
A24G U33G G71A C87G C93G C96A A98G A137G
G25C C27G C32U A40C U55A C57A G88U C96U G141A
G25C A41C A52G G86A C96A
A24G C75A A113U
A24C A73U C79U G88U G126A
A24C C95A C96G U144C
G25C C35U G74C C75A U148G
A24G A39G G67U G83A C85A U104G C105U G136A
A24U A28U U33A A41C U55G C96U
A24C U31C U33G U53A U78A G88U U134C
A24G A40C U55G A97U
A24C A30G A73U C96A
G25A A26G A40G A47C C85A C116G A119C
A24U U53A U55A C95U C99A
G25C A49C C93G
A24G A52G U55A C85U A150C
G25C C79A G84U A97C
A24U C38A G50U U55A U61G G68C G84U G141A U151G
A24C G84A
A24U C36G U56A C57A G71U A91C A106C A110G A138G
A24G G34A G58C C87A C99U
